B1: Autophagy-related protein 13 (Homo sapiens), O75143 (parent)
chain: METDLNSQDRKDLDKFIKFFALKTVQVIVQARLGEKICTRSSSSPTGSDWFNLAIKDIPEVTHEAKKALAGQLPAVGRSMCVEISLKTSEGDSMELEIWCLEMNEKCDKEIKVSYTVYNRLSLLLKSLLAITRVTPAYRLSRKQGHEYVILYRIYFGEVQLSGLGEGFQTVRVGTVGTPVGTITLSCAYRINLAFMSTRQFERTPPIMGIIIDHFVDRPYPSSSPMHPCNYRTAGEDTGVIYPSVEDSQEVCTTSFSTSPPSQLSSSRLSYQPAALGVGSADLAYPVVFAAGLNATHPHQLMVPGKEGGVPLAPNQPVHGTQADQERLATCTPSDRTHCAATPSSSEDTETVSNSSEGRASPHDVLETIFVRKVGAFVNKPINQVTLTSLDIPFAMFAPKNLELEDTDPMVNPPDSPETESPLQGSLHSDGSSGGSSGNTHDDFVMIDFKPAFSKDDILPMDLGTFYREFQNPPQLSSLSIDIGAQSMAEDLDSLPEKLAVHEKNVREFDAFVETLQ

Variants of: B1
Conditions: with MAP1LC3A

Variant	effect of a mutation on the interaction
METDLNSQDRKDLDKFIKFFALKTVQVIVQARLGEKICTRSSSSPTGSDWFNLAIKDIPEVTHEAKKALAGQLPAVGRSMCVEISLKTSEGDSMELEIWCLEMNEKCDKEIKVSYTVYNRLSLLLKSLLAITRVTPAYRLSRKQGHEYVILYRIYFGEVQLSGLGEGFQTVRVGTVGTPVGTITLSCAYRINLAFMSTRQFERTPPIMGIIIDHFVDRPYPSSSPMHPCNYRTAGEDTGVIYPSVEDSQEVCTTSFSTSPPSQLSSSRLSYQPAALGVGSADLAYPVVFAAGLNATHPHQLMVPGKEGGVPLAPNQPVHGTQADQERLATCTPSDRTHCAATPSSSEDTETVSNSSEGRASPHDVLETIFVRKVGAFVNKPINQVTLTSLDIPFAMFAPKNLELEDTDPMVNPPDSPETESPLQGSLHSDGSSGGSSGNTHDDAVMIDFKPAFSKDDILPMDLGTFYREFQNPPQLSSLSIDIGAQSMAEDLDSLPEKLAVHEKNVREFDAFVETLQ [F444A]	decreasing interaction strength
METDLNSQDRKDLDKFIKFFALKTVQVIVQARLGEKICTRSSSSPTGSDWFNLAIKDIPEVTHEAKKALAGQLPAVGRSMCVEISLKTSEGDSMELEIWCLEMNEKCDKEIKVSYTVYNRLSLLLKSLLAITRVTPAYRLSRKQGHEYVILYRIYFGEVQLSGLGEGFQTVRVGTVGTPVGTITLSCAYRINLAFMSTRQFERTPPIMGIIIDHFVDRPYPSSSPMHPCNYRTAGEDTGVIYPSVEDSQEVCTTSFSTSPPSQLSSSRLSYQPAALGVGSADLAYPVVFAAGLNATHPHQLMVPGKEGGVPLAPNQPVHGTQADQERLATCTPSDRTHCAATPSSSEDTETVSNSSEGRASPHDVLETIFVRKVGAFVNKPINQVTLTSLDIPFAMFAPKNLELEDTDPMVNPPDSPETESPLQGSLHSDGSSGGSSGNTHDDFVMADFKPAFSKDDILPMDLGTFYREFQNPPQLSSLSIDIGAQSMAEDLDSLPEKLAVHEKNVREFDAFVETLQ [I447A]	decreasing interaction strength
METDLNSQDRKDLDKFIKFFALKTVQVIVQARLGEKICTRSSSSPTGSDWFNLAIKDIPEVTHEAKKALAGQLPAVGRSMCVEISLKTSEGDSMELEIWCLEMNEKCDKEIKVSYTVYNRLSLLLKSLLAITRVTPAYRLSRKQGHEYVILYRIYFGEVQLSGLGEGFQTVRVGTVGTPVGTITLSCAYRINLAFMSTRQFERTPPIMGIIIDHFVDRPYPSSSPMHPCNYRTAGEDTGVIYPSVEDSQEVCTTSFSTSPPSQLSSSRLSYQPAALGVGSADLAYPVVFAAGLNATHPHQLMVPGKEGGVPLAPNQPVHGTQADQERLATCTPSDRTHCAATPSSSEDTETVSNSSEGRASPHDVLETIFVRKVGAFVNKPINQVTLTSLDIPFAMFAPKNLELEDTDPMVNPPDSPETESPLQGSLHSDGSSGGSSGNTHDAFVMIDFKPAFSKDDILPMDLGTFYREFQNPPQLSSLSIDIGAQSMAEDLDSLPEKLAVHEKNVREFDAFVETLQ [D443A]	decreasing interaction strength
METDLNSQDRKDLDKFIKFFALKTVQVIVQARLGEKICTRSSSSPTGSDWFNLAIKDIPEVTHEAKKALAGQLPAVGRSMCVEISLKTSEGDSMELEIWCLEMNEKCDKEIKVSYTVYNRLSLLLKSLLAITRVTPAYRLSRKQGHEYVILYRIYFGEVQLSGLGEGFQTVRVGTVGTPVGTITLSCAYRINLAFMSTRQFERTPPIMGIIIDHFVDRPYPSSSPMHPCNYRTAGEDTGVIYPSVEDSQEVCTTSFSTSPPSQLSSSRLSYQPAALGVGSADLAYPVVFAAGLNATHPHQLMVPGKEGGVPLAPNQPVHGTQADQERLATCTPSDRTHCAATPSSSEDTETVSNSSEGRASPHDVLETIFVRKVGAFVNKPINQVTLTSLDIPFAMFAPKNLELEDTDPMVNPPDSPETESPLQGSLHSDGSSGGSSGNTHADFVMIDFKPAFSKDDILPMDLGTFYREFQNPPQLSSLSIDIGAQSMAEDLDSLPEKLAVHEKNVREFDAFVETLQ [D442A]	decreasing interaction strength
METDLNSQDRKDLDKFIKFFALKTVQVIVQARLGEKICTRSSSSPTGSDWFNLAIKDIPEVTHEAKKALAGQLPAVGRSMCVEISLKTSEGDSMELEIWCLEMNEKCDKEIKVSYTVYNRLSLLLKSLLAITRVTPAYRLSRKQGHEYVILYRIYFGEVQLSGLGEGFQTVRVGTVGTPVGTITLSCAYRINLAFMSTRQFERTPPIMGIIIDHFVDRPYPSSSPMHPCNYRTAGEDTGVIYPSVEDSQEVCTTSFSTSPPSQLSSSRLSYQPAALGVGSADLAYPVVFAAGLNATHPHQLMVPGKEGGVPLAPNQPVHGTQADQERLATCTPSDRTHCAATPSSSEDTETVSNSSEGRASPHDVLETIFVRKVGAFVNKPINQVTLTSLDIPFAMFAPKNLELEDTDPMVNPPDSPETESPLQGSLHSDGSSGGSSGNTHDDFVAIDFKPAFSKDDILPMDLGTFYREFQNPPQLSSLSIDIGAQSMAEDLDSLPEKLAVHEKNVREFDAFVETLQ [M446A]	decreasing interaction strength
METDLNSQDRKDLDKFIKFFALKTVQVIVQARLGEKICTRSSSSPTGSDWFNLAIKDIPEVTHEAKKALAGQLPAVGRSMCVEISLKTSEGDSMELEIWCLEMNEKCDKEIKVSYTVYNRLSLLLKSLLAITRVTPAYRLSRKQGHEYVILYRIYFGEVQLSGLGEGFQTVRVGTVGTPVGTITLSCAYRINLAFMSTRQFERTPPIMGIIIDHFVDRPYPSSSPMHPCNYRTAGEDTGVIYPSVEDSQEVCTTSFSTSPPSQLSSSRLSYQPAALGVGSADLAYPVVFAAGLNATHPHQLMVPGKEGGVPLAPNQPVHGTQADQERLATCTPSDRTHCAATPSSSEDTETVSNSSEGRASPHDVLETIFVRKVGAFVNKPINQVTLTSLDIPFAMFAPKNLELEDTDPMVNPPDSPETESPLQGSLHSDGSSGGSSGNTHDDFAMIDFKPAFSKDDILPMDLGTFYREFQNPPQLSSLSIDIGAQSMAEDLDSLPEKLAVHEKNVREFDAFVETLQ [V445A]	decreasing interaction strength

Reference: IntAct's records for PubMed 24290141
